From PMC9645528, “Structural and functional basis of mammalian microRNA biogenesis by Dicer” come the findings set out here.

Data set [1] concerns the target DicerO (oocyte isoform lacking HEL1) (Mus musculus, UniProt Q8R418-2 1-1678). Put plainly: EMSA; EMSA conditions not in the material; protein storage/SEC buffer 50 mM Tris pH 8.0, 150 mM NaCl, 1 mM DTT, 2 mM MgCl2 (2 mM CaCl2 for WT Dicer structural work). The following applies: protein: recombinant, tags: N-term TwinStrep-HA-TEV, C-term TEV-2xFLAG-8xHis, hairpin, GCAA tetraloop, 3' overhang UU. A general note: In EMSA bound probe runs differently from free probe, usually more slowly.

A further data set concerns the target Dicer (full-length) (Mus musculus, UniProt Q8R418 1-1916). The data set is described as above. The note with it: protein: recombinant, tags: N-term TwinStrep-HA-TEV, C-term TEV-2xFLAG-8xHis, hairpin, GCAA tetraloop, 3' overhang UU.

DicerO (oocyte isoform lacking HEL1), sequence (Q8R418 other isoform, or with tags, fused parts or gaps): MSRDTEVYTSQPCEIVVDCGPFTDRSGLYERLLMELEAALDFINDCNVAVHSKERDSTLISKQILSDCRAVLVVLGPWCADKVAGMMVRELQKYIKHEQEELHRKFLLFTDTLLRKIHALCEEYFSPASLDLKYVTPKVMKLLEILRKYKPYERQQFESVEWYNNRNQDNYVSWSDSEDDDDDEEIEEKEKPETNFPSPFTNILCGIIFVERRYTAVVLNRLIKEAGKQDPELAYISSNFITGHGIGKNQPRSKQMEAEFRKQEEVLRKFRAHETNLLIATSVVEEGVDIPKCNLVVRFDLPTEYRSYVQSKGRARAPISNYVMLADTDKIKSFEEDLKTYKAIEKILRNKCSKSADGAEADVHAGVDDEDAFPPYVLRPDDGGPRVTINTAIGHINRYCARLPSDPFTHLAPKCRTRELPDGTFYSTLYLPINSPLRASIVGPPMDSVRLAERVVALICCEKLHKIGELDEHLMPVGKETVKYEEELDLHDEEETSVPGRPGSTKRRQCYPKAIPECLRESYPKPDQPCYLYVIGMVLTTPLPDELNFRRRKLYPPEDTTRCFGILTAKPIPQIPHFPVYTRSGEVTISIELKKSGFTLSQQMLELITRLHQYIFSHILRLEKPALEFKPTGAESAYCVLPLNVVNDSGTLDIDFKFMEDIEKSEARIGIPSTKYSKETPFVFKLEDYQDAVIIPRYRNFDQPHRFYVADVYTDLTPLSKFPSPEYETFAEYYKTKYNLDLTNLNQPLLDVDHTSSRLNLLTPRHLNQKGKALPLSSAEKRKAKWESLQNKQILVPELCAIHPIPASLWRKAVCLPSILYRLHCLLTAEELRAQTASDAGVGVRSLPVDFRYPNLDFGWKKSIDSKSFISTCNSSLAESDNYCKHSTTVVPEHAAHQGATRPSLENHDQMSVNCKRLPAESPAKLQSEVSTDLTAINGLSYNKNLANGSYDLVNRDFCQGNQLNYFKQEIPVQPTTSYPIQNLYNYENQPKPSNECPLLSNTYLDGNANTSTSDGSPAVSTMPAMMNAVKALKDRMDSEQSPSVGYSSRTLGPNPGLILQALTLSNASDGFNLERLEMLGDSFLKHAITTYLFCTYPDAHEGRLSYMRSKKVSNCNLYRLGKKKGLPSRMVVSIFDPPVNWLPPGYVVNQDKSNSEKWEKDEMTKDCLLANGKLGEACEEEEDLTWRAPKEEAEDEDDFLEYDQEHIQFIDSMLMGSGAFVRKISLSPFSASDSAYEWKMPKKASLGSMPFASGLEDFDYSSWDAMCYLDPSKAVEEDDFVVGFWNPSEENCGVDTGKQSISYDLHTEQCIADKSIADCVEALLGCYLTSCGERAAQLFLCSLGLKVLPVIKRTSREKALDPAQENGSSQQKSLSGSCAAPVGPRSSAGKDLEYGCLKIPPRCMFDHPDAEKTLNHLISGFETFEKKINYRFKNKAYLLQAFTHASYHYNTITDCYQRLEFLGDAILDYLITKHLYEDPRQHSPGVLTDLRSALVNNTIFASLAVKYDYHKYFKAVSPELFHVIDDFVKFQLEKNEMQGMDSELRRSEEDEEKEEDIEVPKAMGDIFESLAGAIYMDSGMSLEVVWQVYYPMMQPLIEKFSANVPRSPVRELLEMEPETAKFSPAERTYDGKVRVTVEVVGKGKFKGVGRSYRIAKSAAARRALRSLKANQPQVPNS
Dicer (full-length), sequence (Q8R418 whole entry): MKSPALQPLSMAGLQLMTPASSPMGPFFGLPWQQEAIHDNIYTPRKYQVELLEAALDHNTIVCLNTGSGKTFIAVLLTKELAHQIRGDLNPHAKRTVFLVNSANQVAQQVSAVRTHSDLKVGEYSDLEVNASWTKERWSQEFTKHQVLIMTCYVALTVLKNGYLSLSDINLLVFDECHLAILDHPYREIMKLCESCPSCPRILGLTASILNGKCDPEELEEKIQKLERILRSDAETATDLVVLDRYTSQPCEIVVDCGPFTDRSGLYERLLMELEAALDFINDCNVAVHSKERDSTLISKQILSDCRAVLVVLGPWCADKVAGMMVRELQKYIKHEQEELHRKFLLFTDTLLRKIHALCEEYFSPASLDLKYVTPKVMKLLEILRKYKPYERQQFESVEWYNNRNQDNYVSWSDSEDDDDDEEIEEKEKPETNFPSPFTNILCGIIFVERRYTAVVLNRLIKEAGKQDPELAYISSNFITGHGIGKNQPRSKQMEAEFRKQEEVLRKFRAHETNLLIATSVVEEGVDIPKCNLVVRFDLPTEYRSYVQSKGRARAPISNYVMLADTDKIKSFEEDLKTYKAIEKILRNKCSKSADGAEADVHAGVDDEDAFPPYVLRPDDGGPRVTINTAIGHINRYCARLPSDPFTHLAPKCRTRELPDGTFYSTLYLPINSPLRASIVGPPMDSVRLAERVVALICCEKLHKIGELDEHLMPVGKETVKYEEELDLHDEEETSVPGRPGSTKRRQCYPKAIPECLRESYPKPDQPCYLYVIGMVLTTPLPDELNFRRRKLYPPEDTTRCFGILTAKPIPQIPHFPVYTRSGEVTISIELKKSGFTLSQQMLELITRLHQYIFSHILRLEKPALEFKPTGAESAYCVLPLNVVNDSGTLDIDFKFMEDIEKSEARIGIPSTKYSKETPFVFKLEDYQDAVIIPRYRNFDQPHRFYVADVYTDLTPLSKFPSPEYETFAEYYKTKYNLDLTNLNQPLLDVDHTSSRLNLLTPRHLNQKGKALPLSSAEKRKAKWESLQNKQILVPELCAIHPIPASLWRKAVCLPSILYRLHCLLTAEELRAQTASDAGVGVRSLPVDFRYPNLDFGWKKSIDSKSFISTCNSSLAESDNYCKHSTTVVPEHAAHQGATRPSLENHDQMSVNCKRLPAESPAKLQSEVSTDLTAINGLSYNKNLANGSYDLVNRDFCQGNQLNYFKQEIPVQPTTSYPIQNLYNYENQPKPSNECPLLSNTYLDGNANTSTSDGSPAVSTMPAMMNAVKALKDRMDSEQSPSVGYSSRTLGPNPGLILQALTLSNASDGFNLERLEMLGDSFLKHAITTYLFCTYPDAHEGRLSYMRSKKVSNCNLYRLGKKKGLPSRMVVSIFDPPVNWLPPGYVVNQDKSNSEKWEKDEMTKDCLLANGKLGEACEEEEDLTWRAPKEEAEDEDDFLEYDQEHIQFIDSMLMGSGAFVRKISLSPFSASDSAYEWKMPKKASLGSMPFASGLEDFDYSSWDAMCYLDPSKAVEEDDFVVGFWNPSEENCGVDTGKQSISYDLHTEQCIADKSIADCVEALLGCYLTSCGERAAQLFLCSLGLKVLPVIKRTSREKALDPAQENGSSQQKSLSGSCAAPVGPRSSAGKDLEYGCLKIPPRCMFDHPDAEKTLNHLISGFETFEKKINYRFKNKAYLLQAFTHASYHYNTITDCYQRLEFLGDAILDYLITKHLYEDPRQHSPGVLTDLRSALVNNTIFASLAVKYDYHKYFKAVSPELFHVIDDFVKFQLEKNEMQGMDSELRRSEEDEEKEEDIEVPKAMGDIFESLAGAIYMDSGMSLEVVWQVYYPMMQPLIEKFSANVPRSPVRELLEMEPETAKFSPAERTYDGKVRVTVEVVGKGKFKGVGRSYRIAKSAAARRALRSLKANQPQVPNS

B1: 30bp stem-loop (structured_RNA)
RNA: AGAGGAGAGGGACAAUCAUAAAGGCCACUCGCAAGAGUGGCCUUUAUGAUUGUCCCUCUCCUCUUU
For the molecule B1, the equilibrium dissociation constant (Kd) turned out to be 79 ± 7 nM in data set [1] (30 bp stem) and 120 ± 27 nM with Dicer (full-length) (30 bp stem).

B2: 42bp stem-loop (structured_RNA)
RNA: AGAGGAGAGGGACAAUAGAGGAGAGGGACAAUCAUAAAGGCCGCAAGGCCUUUAUGAUUGUCCCUCUCCUCUAUUGUCCCUCUCCUCUUU
Regarding B2, the Kd came to 55 ± 4 nM in data set [1] (42 bp stem) and 115 ± 20 nM in the data set with Dicer (full-length) (42 bp stem).

In general, Kd refers to the equilibrium constant for the complex coming apart.
